The record followed here is patent US20090130114A1 (Amgen, published 2009).

T1: human WISE (human, UniProt Q6X4U4 24-206)
T1 construct: Recombinant, made in E. coli or mammalian cells; biotinylated in the ELISAs, amine-coupled to CM5 in Biacore; also called huWise; huWISE
T1 sequence: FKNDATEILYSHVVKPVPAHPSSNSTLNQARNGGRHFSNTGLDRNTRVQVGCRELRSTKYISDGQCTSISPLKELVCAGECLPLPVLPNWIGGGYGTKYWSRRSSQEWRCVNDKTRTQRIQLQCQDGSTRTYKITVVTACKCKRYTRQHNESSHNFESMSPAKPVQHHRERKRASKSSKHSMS

B1: Ab-B (antibody, V domains shown)
VH: QVQLVQSGAEVKKPGASVKVSCKASGYTFTTYGMSWVRQAPGQGLEWMGWINTYSGVPTYADDFKGRFVFSLDTSVSTAYLQINSLKAEDTAVYYCARGREYYYGSGIAFWGQGTLVTVSS
VL: DVVMTQSPLSLPVTLGQPASISCRSSQSLEHSNGNTYLHWYLQKPGQSPQLLIYKVSNRFSGVPDRFSGSGSGTDFTLKISRVEAEDVGVYFCSQSTHVPLTFGGGTKVEIKR
notes: Humanized Ab-A, human kappa / human IgG2
B2: Ab-G (antibody, human IgG2, kappa, V domains shown)
VH: B1 VH with R38K, Y95F, A97V
VL: B1 VL
notes: as for B1
B3: Ab-D (antibody, V domains shown)
VH: QVQLVQSGAEVKKPGSSVKVSCKASGGTFSSTYISWVRQAPGQGLEWMGWIYAGTGGTRYNRKFTGRVTITADESTSTAYMELSSLRSEDTAVYYCAREGVDGWFTYWGQGTLVTVSS
VL: DIQMTQSPSSLSASVGDRVTISCRASESVDNYGSSFMNWYQQKPGKAPKLLIYAASNQGSGVPSRFSGSGSGTDFTLTISSLQPEDFATYYCQQSKEVPYTFGQGTKLEIKR
notes: Humanized Ab-C, human kappa / human IgG2
B4: Ab-O (antibody, human IgG2, V domains shown)
VH: B3 VH
VL: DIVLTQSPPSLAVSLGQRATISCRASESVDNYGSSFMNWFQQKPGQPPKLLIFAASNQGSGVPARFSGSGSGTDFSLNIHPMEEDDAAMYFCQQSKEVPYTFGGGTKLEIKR
notes: Human IgG2 heavy chain
B5: Ab-28 (antibody, human IgG2, kappa, V domains shown)
VH: B3 VH
VL: DIQMTQSPSSLSASVGDRVTITCRASQSISDYLNWYQQRPGKAPNLLIFASNTLQGGVPSRFRGSGSGTDFTLTINSLQHEDFGTYYCQQSYRTPLTFGGGTKVEIKR
notes: Phage-derived human light chain with the humanized Ab-C IgG2 heavy chain
B6: light chain of SEQ ID NO: 104 paired with the heavy chain of SEQ ID NO: 24 (antibody, human IgG2, lambda, V domains shown)
VH: B3 VH
VL: NFMLTQPHSVSESPGKTVTISCTRNSGSIASNYVQWYQQRPGSSPATVIYEDNQRPSGVPDRFSGSIDISSNSASLTISGLKTEDEADYYCQSYDSSNPFYVFGTGTKVTVLG
notes: as for B5
B7: light chain of SEQ ID NO: 120 paired with the heavy chain of SEQ ID NO: 24 (antibody, human IgG2, kappa, V domains shown)
VH: B3 VH
VL: DIQMTQSPATLSLSPGERATLSCRASRSVSSNLAWYQQKPGRAPRLLMFGASTRATGVPARFSGSGSGTEFTLTISSLQSEDVATYYCQHDNELPLTFGGGTKVELKR
B8: light chain of SEQ ID NO: 116 paired with the heavy chain of SEQ ID NO: 24 (antibody, human IgG2, kappa, V domains shown)
VH: B3 VH
VL: DIQMTQSPSSLSASVGDRVTITCRASRDISVYVNWYQLKPGQAPRLLIYGASNLGFGVPSRFSGSGYGTDFALTISGLQPEDFATYSCQQSYSIPLTFGQGTRVDTKR
B9: light chain of SEQ ID NO: 106 paired with the heavy chain of SEQ ID NO: 24 (antibody, human IgG2, lambda, V domains shown)
VH: B3 VH
VL: NFMLTQPHSVSESPGKTITISCTRSSGSISSNYVQWYQQRPGSSPRIVMSEDDQRPSGVSDRFSGSIDISSNSAFLTISGLKPEDEGDYYCQSYDTDIPYVFGTGTKVTVLG
B10: Ab-23 (antibody, human IgG2, kappa, V domains shown)
VH: B3 VH
VL: DIQMTQSPGTLSLSPGERATLFCRASQRVSSSYLAWYQQRPGQAPRLLMYGTSSWATGIPDRFSGSGSGTDFTLTISSLQPEDFATYYCQQSSSIPYTFGQGTKLEIKR
notes: as for B5
B11: Ab-13 (antibody, human IgG2, kappa, V domains shown)
VH: B3 VH
VL: DIQMTQSPSSLSASVGDRVTITCRASQSISEYLNWYQQKPGQAPRLLIYGVSTRATGIAARFSGSGSGTDFTLTISSLQPEDSAVYYCQQDYNVPYTFGQGTKLEIKR
notes: as for B5
B12: Ab-65 (antibody, human IgG2, lambda, V domains shown)
VH: B3 VH
VL: QSVLTQPPSVSGAPGQRVTISCTGSSSNIGAGYDVHWYQQLPRTAPKLLIYGDTNRPSGVPDRFSGSKSGTSASLAITGLQTEDEADYYCQSYDSSLRAYVFGTGTKVTVLG
notes: as for B5
B13: light chain of SEQ ID NO: 110 paired with the heavy chain of SEQ ID NO: 24 (antibody, human IgG2, lambda, V domains shown)
VH: B3 VH
VL: QSVLTQPPSVSGAPGQRVTISCTGGSSNIGAGYEVHWYQLVPGRAPRFLIHGDNDRPSGVPDRFSASESGSSSFLAISGLQDDDEADYYCQSYDTSLSAWVFGGGTKLTVLG
B14: Ab-66 (antibody, human IgG2, lambda, V domains shown)
V domain 1: QSVVTQPPSVSGAPGQRVTISCTGSSSNIGAGYDVHWYQQLPGAAPKVLIFGNNNRPSGIPDRVSGSKSGTSASLAISGLQTEDEAVYYCQSYDSSLSAYVFGGGTQVTVLG
V domain 2: B3 VH
notes: as for B5
B15: Ab-63 (antibody, human IgG2, lambda, V domains shown)
VH: B3 VH
VL: QSALTQTPSVSGTPGQRVTISCTGSRSNIGAGYDVQWYQQFPGTAPRLLIYANNIRSSGVPDRFSGSKSGTSASLAITGLQAEDEATYYCQSYDRSLSGYVFGTGTEVTVVG
notes: as for B5
B16: Ab-60 (antibody, human IgG2, lambda, V domains shown)
VH: B3 VH
VL: QSVVTQPPAVSGAPGQRITISCTGSSSNIGAGYDVHWYQQFPGTAPKVLIFANDYRPSGVPDRFSASKSATSASLAIRGLQSEDEADYYCQSYDNRLSGYVFGTGTKVTVLG
notes: as for B5
B17: Ab-48 (antibody, human IgG2, kappa, V domains shown)
VH: B3 VH
VL: DIQMTQSPSSLSASIGDRVTITCQASQDINNYLNWYQQKQGKAPKVLIFDASNLAAGVPSRFSGSGSGTDFTLTISSLQPEDIATYYCQQYDNLPLTFGQGTKVDNKR
notes: as for B5
B18: Ab-1 (antibody, human IgG2, lambda, V domains shown)
VH: B3 VH
VL: QSVVTQPPSVSGAPGQRVTMSCTGSSSNLGAGYDVNWYQQLPGKAPKVLIYGNEIRPSGVPDRFSGSKSDTSATLDITGLQTGDEADYYCETWDSSLSTVVFGGGTKLTVLG
notes: Phage-derived human light chain with the humanized Ab-C IgG2 heavy chain, transiently expressed in 293 6E cells
B19: Ab-16 (antibody, human IgG2, kappa, V domains shown)
VH: B3 VH
VL: DIQLTQSPFSLSASVGDRVTITCRASQSINDNLNWYLQKPGKAPKLLIFAASTSQSGVPSRFSGNGFGTDFSLIISGLQPEDVGTYYCQQNDSMPFTFGQGTRLDIKR
notes: as for B5
B20: light chain of SEQ ID NO: 112 paired with the heavy chain of SEQ ID NO: 24 (antibody, human IgG2, kappa, V domains shown)
VH: B3 VH
VL: DIQMTQSPGTLSLSPGERATLSCRTSQSVSSTSVAWYQQKPGQAPRLLMYDASSRAAGIPDRFSGSGSVTDFTLTISRLEPEDFATYYCQQSYSLPYTFGQGTKVEIKR
B21: Ab-29 (antibody, human IgG2, kappa, V domains shown)
VH: B3 VH
VL: DIQMTQSPLSLSASVGDRVAITCRASQSISDSLNWYQQKPGKPPKIVIYAASGLPSGVPSRFSGGGSGTDFTLVISTLQPEDFATYYCQQSYSAPLTFGGGTKVEISR
notes: as for B5
B22: Ab-62 (antibody, human IgG2, lambda, V domains shown)
VH: B3 VH
VL: QAVLTQPSSVSGAPGRRVTISCTGSSSNIGAGYDVHWYQQLPGKAPKLVISANTNRPSGVPDRFSGSKSGTSASLAITGLQAEDEADYYCQSYDNSVSAYVFGTGTKVTVLG
notes: as for B5
B23: light chain of SEQ ID NO: 114 paired with the heavy chain of SEQ ID NO: 24 (antibody, human IgG2, kappa, V domains shown)
VH: B3 VH
VL: NIQMTQSPGTLSLSPGERATLSCRASQSVTGNHLAWYQQKPGQAPRVLMYDTSSRATGIPDRFSGSGSGTDFTLTISSLQPEDIATYYCQQFDNLPYTFGQGTKLEIKR
B24: Ab-24 (antibody, human IgG2, kappa, V domains shown)
VH: B3 VH
VL: ETTLTQSPALLSLSPGERATLSCRASQTLSFDFFAWYQQKPGQAPSLLISGISTRAAGVPDRFSGSGSGTDFTLTIDRLEPEDFAVYFCQQSSSLPLTFGGGTKVEIRR
notes: as for B5
B25: Ab-18 (antibody, human IgG2, kappa, V domains shown)
VH: B3 VH
VL: DIQLTQSPSSLSASVGDRVTITCQASQDINNYLSWYQQKPGKAPKVLIYDTSNLETGVPSRFSGSGSGTDFTFTISSLQPEDIATYYCQQSDNLPYTFGQGTKLEIKR
notes: as for B5
B26: light chain of SEQ ID NO: 108 paired with the heavy chain of SEQ ID NO: 24 (antibody, human IgG2, kappa, V domains shown)
VH: B3 VH
VL: DIQMTQSPSSLSASVGDRITISCQASQDIDNYLNWYQQKSGKAPKLLIYDAYNLKAGVPSRFRGSRSGTDFFLTISSLQPEDFATYYCLQQYRYPLTFGGGTKVEIKR
B27: light chain of SEQ ID NO: 118 paired with the heavy chain of SEQ ID NO: 24 (antibody, human IgG2, kappa, V domains shown)
VH: B3 VH
VL: B26 VL with S9D, K39R, A84G, Y92S, R93S, G100Q

Residue numbers refer to the chain shown, from its start.

One assay addresses T1, human WISE. Description: ELISA, antibody coated, biotinylated human WISE titrated. For orientation: In an ELISA, binding on a coated surface is turned into a signal by an enzyme label.
Consider B1, for which the binding result is “binds”.

On to B2, for which the binding result was “binds”. The same measure, in the same setting: with B3 the entry was “binds”; with B4, “binds”.

The target of the next assay is T1, human WISE. Description: assay not specified (IgG2 from transient transfection).
As for B5, the binding result is “binds”.

For the molecule B6, the binding result was “binds”. For B7, the binding result is on record as “binds”.

As for B8, the binding result is “binds”. As for B9, the binding result is given as “binds”. B10: the binding result is on record as “binds”. The same measure, in the same setting: the same measure for B11: “binds”. As to B12, the binding result is on record as “binds”.

As for B13, the binding result is on record as “binds”.

Regarding B14, the binding result is reported as “binds”. In the case of B15, the binding result is “binds”.

For B16, the binding result is reported as “binds”.

With B17, the binding result was “binds”. Consider B18, for which the binding result is reported as “binds”. Consider B19, for which the binding result was “binds”. With B20, the binding result was “binds”. B21: the binding result is listed as “binds”.

As for B22, the binding result is on record as “binds”. For B23, the binding result is listed as “binds”. The same measure, in the same setting: with B24 the entry was “binds”; with B25, “binds”. As for B26, the binding result is reported as “binds”. B27: the binding result is recorded as “binds”.
